Laboratory results as given in US6355245.

How the values were obtained:
[1] = biological target: human complement component C5 (purified) (human) (UniProt P01031); assay: cell-based or functional assay
[2] = biological target: human complement component C5 (purified) (human) (UniProt P01031); assay: plate-bound C3, C5 20 µg/ml with 5G1.1 Fab 20 µg/ml, bound C5 detected with N19/8; competitor C3
[3] = biological target: human complement component C5 (purified) (human) (UniProt P01031); assay: plate-bound C4, C5 20 µg/ml with 5G1.1 Fab 20 µg/ml, bound C5 detected with N19/8; competitor C4
[4] = biological target: human complement component C5 (purified) (human) (UniProt P01031); assay: solution equilibrium with C5, free antibody measured by ELISA (Friguet method), Scatchard analysis

UniProt P01031, sequence (P01031 19-673 T389I limits assumed, chain 1 of 2): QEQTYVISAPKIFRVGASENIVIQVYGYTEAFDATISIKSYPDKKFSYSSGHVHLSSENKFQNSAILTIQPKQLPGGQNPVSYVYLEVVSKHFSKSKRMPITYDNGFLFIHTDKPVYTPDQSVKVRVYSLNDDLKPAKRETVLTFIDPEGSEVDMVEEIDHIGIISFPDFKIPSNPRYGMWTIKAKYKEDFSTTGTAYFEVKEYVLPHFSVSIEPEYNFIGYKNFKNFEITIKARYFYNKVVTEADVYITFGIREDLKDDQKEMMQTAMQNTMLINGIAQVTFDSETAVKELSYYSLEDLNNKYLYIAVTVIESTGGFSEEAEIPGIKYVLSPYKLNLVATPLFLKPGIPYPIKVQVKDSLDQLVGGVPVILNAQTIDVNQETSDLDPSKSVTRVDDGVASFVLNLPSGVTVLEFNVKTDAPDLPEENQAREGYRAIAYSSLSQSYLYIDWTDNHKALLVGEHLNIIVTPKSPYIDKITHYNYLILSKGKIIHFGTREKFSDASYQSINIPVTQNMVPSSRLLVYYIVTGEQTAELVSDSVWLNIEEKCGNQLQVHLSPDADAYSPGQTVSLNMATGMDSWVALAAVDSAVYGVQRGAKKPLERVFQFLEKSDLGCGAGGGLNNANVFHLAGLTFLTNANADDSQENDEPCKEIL
UniProt P01031, sequence (P01031 678-1676 V802I limits assumed, chain 2 of 2): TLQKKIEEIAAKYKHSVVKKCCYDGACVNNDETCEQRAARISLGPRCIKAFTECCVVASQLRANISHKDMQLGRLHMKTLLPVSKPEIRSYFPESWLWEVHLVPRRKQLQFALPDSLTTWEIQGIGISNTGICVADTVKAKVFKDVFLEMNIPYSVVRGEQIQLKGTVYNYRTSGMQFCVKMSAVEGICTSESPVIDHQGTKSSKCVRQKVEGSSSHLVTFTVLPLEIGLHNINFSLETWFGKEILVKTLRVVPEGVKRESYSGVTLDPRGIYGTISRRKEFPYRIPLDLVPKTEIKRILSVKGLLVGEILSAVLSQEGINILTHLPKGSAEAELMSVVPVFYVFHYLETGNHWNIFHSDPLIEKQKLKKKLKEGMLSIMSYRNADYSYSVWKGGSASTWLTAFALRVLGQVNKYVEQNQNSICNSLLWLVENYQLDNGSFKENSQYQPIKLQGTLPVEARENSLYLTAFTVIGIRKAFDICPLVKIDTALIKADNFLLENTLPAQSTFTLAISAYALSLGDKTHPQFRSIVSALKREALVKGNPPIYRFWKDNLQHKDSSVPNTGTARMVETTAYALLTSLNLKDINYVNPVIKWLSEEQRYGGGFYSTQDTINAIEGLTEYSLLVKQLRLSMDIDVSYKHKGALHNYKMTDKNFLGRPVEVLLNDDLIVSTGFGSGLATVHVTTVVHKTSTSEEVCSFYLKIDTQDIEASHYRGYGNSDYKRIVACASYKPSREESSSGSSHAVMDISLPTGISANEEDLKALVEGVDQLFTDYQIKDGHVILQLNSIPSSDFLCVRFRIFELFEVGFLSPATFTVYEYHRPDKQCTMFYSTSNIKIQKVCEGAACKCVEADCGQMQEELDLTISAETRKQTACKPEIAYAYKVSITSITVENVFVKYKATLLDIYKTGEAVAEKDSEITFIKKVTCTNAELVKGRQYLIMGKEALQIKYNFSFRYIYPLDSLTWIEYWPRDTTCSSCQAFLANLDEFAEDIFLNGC

concentration that completely blocks C5a generation [1] [µM] | percent inhibition of C5 binding to C3 [2] [%] | percent inhibition of C5 binding to C4 [3] [%] | Kd [4] [nM] | Substance | concentration that completely blocks C5b-9-mediated hemolysis in 20% human serum [1] [µM] | concentration that blocks serum hemolytic activity, 20% v/v human serum [1] [µg/mL] | molar ratio at which serum hemolytic activity is blocked, 20% v/v human serum (molar ratio 5G1.1/C5) [1] | serum hemolytic activity (chicken erythrocyte hemolysis assay, human serum) (molar ratio antibody/C5) [1] | blocking of complement hemolytic activity and of C5a generation [1] [%]
0.06 to 0.08 | 60 to 90 | 60 to 90 | – | 5G1.1 Fab (derived from 5G1.1 by conventional papain digestion) | 0.06 to 0.08 | – | – | – | –
0.06 to 0.08 | – | – | 0.03 | 5G1.1 monoclonal antibody (native murine anti-human C5 mAb, produced by hybridoma 5G1.1, ATCC HB-11625) | 0.06 to 0.08 | 6.25 | 0.5 | 0.5 | –
0.15 | – | – | – | m5G1.1 scFv (non-humanized murine 5G1.1 scFv, 5G1.1M1scFv) | 0.15 | – | – | – | –
– | – | – | – | chimeric N19/8 Fab (N19-8 VL/human kappa constant region and N19-8 VH/human IgG1 Fd) | – | – | – | – | 50
